In one assay the target is T1, FAM19A5 mutant M6 (human).
T1 chain: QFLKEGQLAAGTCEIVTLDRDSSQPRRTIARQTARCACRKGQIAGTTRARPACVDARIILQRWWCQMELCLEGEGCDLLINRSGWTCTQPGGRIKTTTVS
Description: ELISA on phage-expressed FAM19A5 mutants M1-M8. (In an ELISA, binding on a coated surface is turned into a signal by an enzyme label.)

Assay [1] deals with T2, Mutant F5 peptide F5-3 (#3) (human).
T2 construct: already contained in the entry; also called mutant peptide #3
T2 peptide: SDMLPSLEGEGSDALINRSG
Description: ELISA, plate-coated F5 mutant peptides.

For assay [2], the target named is T3, Mutant F5 peptide F5-1 (#1) (human).
T3 construct: already contained in the entry; also called mutant peptide #1
T3 peptide: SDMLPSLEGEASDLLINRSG
Description: ELISA, plate-coated F5 mutant peptides.

The target in assay [3] is T4, Mutant F5 peptide F5-8 (#8) (human).
T4 construct: already contained in the entry; also called mutant peptide #8
T4 peptide: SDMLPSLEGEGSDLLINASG
Description: ELISA, plate-coated F5 mutant peptides.

For assay [4], the target named is T5, Mutant F5 peptide F5-2 (#2) (human).
T5 construct: already contained in the entry; also called mutant peptide #2
T5 peptide: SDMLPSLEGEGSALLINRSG
Description: ELISA, plate-coated F5 mutant peptides.

Assay [5] has as its target T6, Mutant F5 peptide F5-4 (#4) (human).
T6 construct: already contained in the entry; also called mutant peptide #4
T6 peptide: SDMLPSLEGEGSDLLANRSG
Description: ELISA, plate-coated F5 mutant peptides.

In assay [6] the target is T7, Mutant F5 peptide F5-6 (#6) (human).
T7 construct: already contained in the entry; also called mutant peptide #6
T7 peptide: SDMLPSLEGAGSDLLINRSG
Description: ELISA, plate-coated F5 mutant peptides.

For assay [7], the target named is T8, Mutant F5 peptide F5-5 (#5) (human).
T8 construct: already contained in the entry; also called mutant peptide #5
T8 peptide: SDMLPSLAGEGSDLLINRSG
Description: ELISA, plate-coated F5 mutant peptides.

The target of assay [8] is T9, Mutant F5 peptide F5-7 (#7) (human).
T9 construct: already contained in the entry; also called mutant peptide #7
T9 peptide: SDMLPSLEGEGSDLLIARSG
Description: ELISA, plate-coated F5 mutant peptides.

Assay [9] deals with T10, FAM19A5 epitope fragment F1, BSA-conjugated (human, also: conjugated to BSA).
T10 construct: which number belongs to which fragment is not spelled out
T10 peptide: QLAAGTCEIVTLDR
Description: ELISA, plate-coated BSA-conjugated FAM19A5 fragments F1-F6. How it is done: (§1) Binding of the different anti-FAM19A5 antibodies to the BSA-conjugated peptide fragments F1-F6 was determined by Western blot analysis or ELISA assay. For the Western blot analysis, BSA-conjugated FAM19A5 fragments F1-F6 were separated by SDS polyacrylamide gel electrophoresis and transferred to a nitrocellulose membrane by the standard procedure. The membrane was incubated with the anti-FAM19A5 antibody (e.g., 1-65, […], 1-65-scFv-rabbit Fc-SSS), and the antigen-antibody complexes were detected with the appropriate secondary antibody conjugated with horse-radish peroxidase (anti-rabbit IgG (Fc specific)-HRP, 1:4000 dilution). For the ELISA assay, the following protocol was used. FAM19A5 fragment F1-F6 (diluted to 1 μg/mL in 50 mM carbonate buffer (Biosesang) or to 20 μg/mL for high concentration analysis) were used to coat the wells of 96-well immuno plates (Thermo Scientific) (100 μL/well) overnight at 4° C. and then subsequently washed twice in 1×PBS. The plates were then blocked with the blocking buffer (100 μL/well) for 1 hour at room temperature. During the 1-hour incubation, the relavant anti-FAM19A5 antibodies were diluted to 1 μg/mL (or 20 μg/mL for high concentration analysis) in the diluent buffer. Once the plates were washed (2× using 1×PBS), the diluted anti-FAM19A5 antibodies were added to the appropriate wells, and the plates were incubated at room temperature for 1 hour. The plates were subsequently washed for a total of five times using the washing buffer. Next, the ODP substrate (prepared by dissolving one ODP tablet (O-phenylenediamine Dihydrochloride, Thermo) into 9 mL of sterilized deionized water and 1 mL of 10× stable Peroxide Stable buffer (Theromo)) was added to each of the wells, and the color change reaction was allowed to occur for 10 minutes. This reaction was stopped by adding 100 μL of 2N H2SO4 (Daejung) to the wells. The absorption value of each of the wells was detected at 492 nm using a 96-well microplate reader (Molecular Device).
(§2) As shown in FIGS. 19 and 20A, the anti-FAM19A5 antibody 1-65 bound strongly to fragment F5 as measured by both Western Blot and ELISA assay, respectively.

Assay [10] deals with T11, FAM19A5 epitope fragment F6, BSA-conjugated (human, conjugated to BSA).
T11 peptide: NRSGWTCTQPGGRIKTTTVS
The description is as above. The protocol: as §1, §2

For assay [11], the target named is T12, FAM19A5 epitope fragment F3, BSA-conjugated (human, conjugated to BSA).
T12 peptide: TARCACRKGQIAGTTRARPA
Described as above. The protocol:
as §1, §2

For assay [12], the target named is T13, FAM19A5 epitope fragment F2, BSA-conjugated (human, conjugated to BSA).
T13 peptide: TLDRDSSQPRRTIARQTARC
The description is as above. The protocol: as §1, §2

In another assay the target is T14, FAM19A5 mutant M7 (human).
T14 chain: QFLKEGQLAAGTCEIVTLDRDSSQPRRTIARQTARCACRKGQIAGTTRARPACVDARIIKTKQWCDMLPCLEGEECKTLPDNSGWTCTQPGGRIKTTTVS
Description: ELISA on phage-expressed FAM19A5 mutants M1-M8.

In a further assay the target is T15, FAM19A5 mutant M8 (human).
T15 chain: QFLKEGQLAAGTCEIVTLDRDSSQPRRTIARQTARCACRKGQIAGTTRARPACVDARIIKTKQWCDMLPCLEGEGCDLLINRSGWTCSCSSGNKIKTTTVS
Description: ELISA on phage-expressed FAM19A5 mutants M1-M8.

The next assay has as its target T16, FAM19A5 mutant M2 (human).
T16 chain: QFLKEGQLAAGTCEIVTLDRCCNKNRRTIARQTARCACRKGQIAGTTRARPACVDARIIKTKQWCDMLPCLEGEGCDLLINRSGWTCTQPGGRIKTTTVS
Description: ELISA on phage-expressed FAM19A5 mutants M1-M8.

Ends that are not written are not given here.

B1: Anti-FAM19A5 antibody P2-C12 (antibody, V domains shown)
VH: QSLEESGGRLVTPGTPLTLTCTVSGFSLSTYAVTWVRQAPGKGLEWIGYINWRGGTSYANWAKGRFTISKTSSTTVDLKMTSPTTEDTATYFCARDASSGAAFGSYGMDPWGPGTLVTVSS
VL: ELDMTQTPSSVSAAVGGTVTIKCQASQSISSYLSWYQQKPGQPPKLLIYEASKLASGVPSRFSGSGYGTEFTLTISDLECADAATYYCQQGYSSTNVWNAFGGGTNVEIK
Regarding B1, the binding result with FAM19A5 mutant M6 is reported as “no binding”; in assay [1], “binds”; in assay [2] it was “no binding”; in [3], “no binding”; in assay [4], “binds”; in assay [5] it was “binds”. Further, the binding result in [6] was “no binding”; in [7] it was “binds”; in [8], “binds”; in [9] it was “no binding”; in assay [10] it was “no binding”; in [11] it was “no binding”. Further, the binding result in [12] was “no binding”.

B2: Anti-FAM19A5 antibody 13F7 (antibody, V domains shown)
VH: QVQLQEWGAGLLKPSETLSLTCAINAESFNGYSWTWIRQTPGKGLEWIGEISHFGSANYNPSLKSRATISADKSKNQFSLKLTSVTAVDTAVYYCARALRGTYSRFYYGMDVWGQGTTVTVSS
VL: DIVMTQTPLSLPVAPGEPASISCRSSQSLLHSNGYNYLDWYVQKPGQPPQLLIYLGSNRASGVPDRFSGSGSGTDFTLKISRVEAEDVGVYYCMQARQTPLTFGGGTKVEIK
Regarding B2, the figures for the binding result with FAM19A5 mutant M7 and in the assay with FAM19A5 mutant M8 were “binds” and “no binding”, respectively.

B3: Anti-FAM19A5 antibody 1-65 (antibody, V domains shown)
VH: AVTLDESGGGLQTPGGALSLVCKASGFTFSSYQMGWVRQAPGKGLEWVGVINKSGSDTSYGSAVKGRATISRDNGQSTVRLQLNNLRAEDTGTYFCAKGSASYITAATIDAWGHGTEVIVSS
VL: ALTQPSSVSANPGETVKITCSGGGSSGYGYGWYQQKSPSSAPLTVIYWNDKRPSDIPSRFSGSKSGSTHTLTITGVQAEDEAVYFCGNDDYSSDSGYVGVFGAGTTLTVL
notes: also called monoclonal antibody clone 1-65
As to B3, the binding result with FAM19A5 mutant M6 was “no binding”; in the assay with FAM19A5 mutant M7, “no binding”; in the assay with FAM19A5 mutant M8 it was “no binding”; in [1], “no binding”; in [2], “binds”; in [3], “no binding”. Also, the binding result in [4] is recorded as “no binding”; in assay [5], “no binding”; in assay [6] it was “binds”; in [7] it was “binds”; in assay [8] it was “binds”.

B4: Anti-FAM19A5 antibody P2-A03 (antibody, V domains shown)
VH: QSVEESGGRLVTPGTPLTLTCTVSGFSLNNYDMSWVRQAPGKGLEYIGFMDTDGSAYYATWAKGRFTISRTSTTVDLKMTSPTTEDTATYFCARRGSSYYGGIDIWGPGTPVTVSL
VL: ELDLTQTPASVSEPVGGTVTIKCQASQSIGGNLAWYQQKPGQPPKLLIYRASTLASGVPSRFKGSGSGTDFTLTISDLECADAATYYCQSPAYDPAAYVGNAFGGGTELEIL
On to B4, for which the binding result in the assay with FAM19A5 mutant M8 is recorded as “no binding”.

B5: Anti-FAM19A5 antibody 3-2 (antibody, V domains shown)
VH: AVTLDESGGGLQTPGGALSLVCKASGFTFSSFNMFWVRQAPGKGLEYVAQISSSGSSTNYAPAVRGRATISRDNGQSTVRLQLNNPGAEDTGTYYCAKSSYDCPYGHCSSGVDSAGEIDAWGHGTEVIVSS
VL: ALTQPSSVSANPGETVKITCSGGGSYAGSYYYGWYQQKAPGSAPVTLIYESNKRPSDIPSRFSGSTSGSTATLTITGVQADDEAIYYCGSWDSSNGGIFGAGTTLTVL
notes: also called h3-2; m3-2
In the case of B5, the binding result with FAM19A5 mutant M2 is on record as “no binding”; in assay [12] it was “binds”.

B6: Anti-FAM19A5 antibody 13B4 (antibody, V domains shown)
VH: QVQLQESGPGLVKPSGTLSLNCAVSGGSISSSNWWSWVRQPPGKGLEWIGEIYHGGTTNYNPSLKGRVTMSVDKTKNQFSLRLSSVTAVDTAVYYCARWQLVGGLDVWGQGTTVTVSS
VL: SYELTQPLSVSVSPGQTASITCSGDKLGNVYASWYQQKPGQSPTLVIYQDNKRPSGIPERFSGSNSGKTATLTISGTQALDEADYYCQAWDSSTAVFGGGTKLTVL
In the case of B6, the binding result with FAM19A5 mutant M6 is on record as “no binding”; with FAM19A5 mutant M7, “binds”; with FAM19A5 mutant M8, “no binding”.

(Values after patent US20260265360A1 (NEURACLE SCIENCE, published 2026).)
